# Results reported in IntAct's records for PubMed 23825108.
# B1: Cyanocobalamin reductase / alkylcobalamin dealkylase (Homo sapiens), Q9Y4U1 (parent)
# chain: MEPKVAELKQKIEDTLCPFGFEVYPFQVAWYNELLPPAFHLPLPGPTLAFLVLSTPAMFDRALKPFLQSCHLRMLTDPVDQCVAYHLGRVRESLPELQIEIIADYEVHPNRRPKILAQTAAHVAGAAYYYQRQDVEADPWGNQRISGVCIHPRFGGWFAIRGVVLLPGIEVPDLPPRKPHDCVPTRADRIALLEGFNFHWRDWTYRDAVTPQERYSEEQKAYFSTPPAQRLALLGLAQPSEKPSSPSPDLPFTTPAPKKPGNPSRARSWLSPRVSPPASPGP
# Variants of: B1
# Conditions: with meth_human MTR
row,effect of a mutation on the interaction,Variant
1,decreasing interaction strength,MEPKVAELKQKIEDTLCPFGFEVYPFQVAWYNELLPPAFHLPLPGPTLAFLVLSTPAMFDRALKPFLQSCHLRMLTDPVDQCVAYHLGRVRESLPELQIEIIADYEVHPNRRPKILAQTAAHVAGAAYYYQRQDVEADPWGNQRISGVCIHPRFGGWFAIRGVVLLPGIEVPDLPPRKPHDCVPTRADRIALLEGFNFHWRDWTYWDAVTPQERYSEEQKAYFSTPPAQRLALLGLAQPSEKPSSPSPDLPFTTPAPKKPGNPSRARSWLSPRVSPPASPGP [R206W]
2,decreasing interaction strength,MEPKVAELKQKIEDTLCPFGFEVYPFQVAWYNELLPPAFHLPLPGPTLAFLVLSTPAMFDRALKPFLQSCHLRMLTDPVDQCVAYHLGRVRESLPELQIEIIADYEVHPNRRPKILAQTAAHVAGAAYYYQRQDVEADPWGNQRISGVCIHPRFGGWFAIQGVVLLPGIEVPDLPPRKPHDCVPTRADRIALLEGFNFHWRDWTYRDAVTPQERYSEEQKAYFSTPPAQRLALLGLAQPSEKPSSPSPDLPFTTPAPKKPGNPSRARSWLSPRVSPPASPGP [R161Q]
